The record followed here is patent US20220363770A1 (Amgen, published 2022).

One experiment addresses human CGRP receptor (human, UniProt Q16602 23-461; O60894 27-148). As to the kind of experiment: cell-based or functional assay.
The target in another experiment is T1, human PAC1 receptor (human, UniProt P41586 24-468).
T1 sequence: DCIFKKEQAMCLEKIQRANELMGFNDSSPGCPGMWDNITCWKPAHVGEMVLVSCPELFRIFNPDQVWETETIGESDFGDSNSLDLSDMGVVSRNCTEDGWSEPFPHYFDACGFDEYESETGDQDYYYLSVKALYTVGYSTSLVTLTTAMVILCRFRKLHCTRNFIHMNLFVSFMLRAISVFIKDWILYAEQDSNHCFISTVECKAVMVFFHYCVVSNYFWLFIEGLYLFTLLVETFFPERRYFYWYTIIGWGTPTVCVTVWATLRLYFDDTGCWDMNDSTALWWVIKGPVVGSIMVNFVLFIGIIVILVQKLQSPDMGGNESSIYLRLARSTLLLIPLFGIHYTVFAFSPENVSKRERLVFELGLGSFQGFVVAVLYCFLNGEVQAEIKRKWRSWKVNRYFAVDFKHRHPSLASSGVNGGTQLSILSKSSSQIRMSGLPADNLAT
Nature of the experiment: cell-based or functional assay.

Sequence of human CGRP receptor (Q16602 23-461 limits assumed, chain 1 of 2): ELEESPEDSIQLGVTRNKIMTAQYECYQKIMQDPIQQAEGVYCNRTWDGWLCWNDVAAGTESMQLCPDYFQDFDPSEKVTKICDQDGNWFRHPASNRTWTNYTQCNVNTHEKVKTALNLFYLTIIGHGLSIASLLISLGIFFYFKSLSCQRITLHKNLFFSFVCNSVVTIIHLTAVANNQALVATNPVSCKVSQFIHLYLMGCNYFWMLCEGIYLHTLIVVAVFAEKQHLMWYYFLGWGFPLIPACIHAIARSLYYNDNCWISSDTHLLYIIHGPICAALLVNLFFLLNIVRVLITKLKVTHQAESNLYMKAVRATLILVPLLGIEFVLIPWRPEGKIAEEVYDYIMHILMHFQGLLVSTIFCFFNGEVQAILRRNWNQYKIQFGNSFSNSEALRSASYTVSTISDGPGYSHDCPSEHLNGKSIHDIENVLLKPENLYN
Sequence of human CGRP receptor (O60894 27-148 limits assumed, chain 2 of 2): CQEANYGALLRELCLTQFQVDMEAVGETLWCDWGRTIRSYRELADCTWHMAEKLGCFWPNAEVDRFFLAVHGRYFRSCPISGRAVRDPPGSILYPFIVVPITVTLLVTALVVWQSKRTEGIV

B1: iPS:454887 (bispecific antibody, human IgG1, kappa, lambda, N297G)
light 1: QSVLTQPPSVSAAPGQKVTISCSGSSSNIGNNYVSWYQQLPGTAPKLLIYDNNKRPSGIPDRFSGSKSGTSTTLGITGLQTGDEADYYCGTWDSRLSAVVFGGGTKLTVLGQPKAAPSVTLFPPSSEELQANKATLVCLISDFYPGAVTVAWKADSSPVKAGVETTTPSKQSNNKYAAKSYLSLTPEQWKSHRSYSCQVTHEGSTVEKTVAPTECS
heavy 1: QVQLVESGGGVVQPGRSLRLSCAASGFTFSSFGMHWVRQAPGKGLEWVAVISFDGSIKYSVDSVKGRFTISRDNSKNTLFLQMNSLRAEDTAVYYCARDRLNYYRSFGYYGYHYYGMAVWGQGTTVTVSSASTKGPSVFPLAPSSKSTSGGTAALGCLVKDYFPEPVTVSWNSGALTSGVHTFPAVLQSSGLYSLESVVTVPSSSLGTQTYICNVNHKPSNTKVDKKVEPKSCDKTHTCPPCPAPELLGGPSVFLFPPKPKDTLMISRTPEVTCVVVDVSHEDPEVKFNWYVDGVEVHNAKTKPCEEQYGSTYRCVSVLTVLHQDWLNGKEYKCKVSNKALPAPIEKTISKAKGQPREPQVYTLPPSRKKMTKNQVSLTCLVKGFYPSDIAVEWESNGQPENNYKTTPPVLKSDGSFFLYSKLTVDKSRWQQGNVFSCSVMHEALHNHYTQKSLSLSPGK
light 2: EIVLTQSPATLSLSPGERATLSCRASKSVGRSLHWYQQKPGQAPRLLIKYASQSLSGIPARFSGSGSGTDFTLTISSLEPEDFAVYYCHQSSRLPFTFGPGTKVDIKRTVAAPSVFIFPPSDEQLKSGTASVVCLLNNFYPREAKVQWKVDNALQSGNSQESVTEQDSKDSTYSLESTLTLSKADYEKHKVYACEVTHQGLSSPVTKSFNRGEC
heavy 2: not shown
For the molecule B1, in the experiment with human CGRP receptor, the “Fold-improvement over 4E4 Ab” value is 0.3 fold and the IC50 (as a rule, the midpoint of a concentration-inhibition curve) stood at 1.86 nM. Moreover, in the experiment with human PAC1 receptor, the “Fold-improvement over 29G4v22 Ab” value came out at 9.3 fold and the “IC50” value turned out to be 0.69 nM.

B2: iPS:454889 (bispecific antibody, human IgG1, kappa, lambda, N297G)
light 1: QSVLTQPPSVSAAPGQKVTISCSGSSSNIGNNYVSWYQQLPGTAPKLLIYDNNKRPSGIPDRFSGSKSGTSTTLGITGLQTGDEADYYCGTWDSRLSAVVFGGGTKLTVLGQPKAAPSVTLFPPSSEELQANKATLVCLISDFYPGAVTVAWKADSSPVKAGVETTTPSKQSNNKYAAKSYLSLTPEQWKSHRSYSCQVTHEGSTVEKTVAPTECS
heavy 1: QVQLVESGGGVVQPGRSLRLSCAASGFTFSSFGMHWVRQAPGKGLEWVAVISFDGSIKYSVDSVKGRFTISRDNSKNTLFLQMNSLRAEDTAVYYCARDRLNYYRSFGYYGYHYYGMAVWGQGTTVTVSSASTKGPSVFPLAPSSKSTSGGTAALGCLVKDYFPEPVTVSWNSGALTSGVHTFPAVLQSSGLYSLESVVTVPSSSLGTQTYICNVNHKPSNTKVDKKVEPKSCDKTHTCPPCPAPELLGGPSVFLFPPKPKDTLMISRTPEVTCVVVDVSHEDPEVKFNWYVDGVEVHNAKTKPCEEQYGSTYRCVSVLTVLHQDWLNGKEYKCKVSNKALPAPIEKTISKAKGQPREPQVYTLPPSRKKMTKNQVSLTCLVKGFYPSDIAVEWESNGQPENNYKTTPPVLKSDGSFFLYSKLTVDKSRWQQGNVFSCSVMHEALHNHYTQKSLSLSPGK
light 2: EIVLTQSPATLSLSPGERATLSCRASKSVGRSLHWYQQKPGQAPRLLIKYASQSLSGIPARFSGSGSGTDFTLTISSLEPEDFAVYYCHQSSRLPFTFGPGTKVDIKRTVAAPSVFIFPPSDEQLKSGTASVVCLLNNFYPREAKVQWKVDNALQSGNSQESVTEQDSKDSTYSLESTLTLSKADYEKHKVYACEVTHQGLSSPVTKSFNRGEC
heavy 2: not shown
For the molecule B2, in the experiment with human CGRP receptor, the “Fold-improvement over 4E4 Ab” value worked out at 0.5 fold and half-maximal inhibition (IC50) was put at 1.1 nM. In the experiment with human PAC1 receptor, the “Fold-improvement over 29G4v22 Ab” value worked out at 4.9 fold and half-maximal inhibition (IC50) was put at 1.31 nM.

B3: iPS:454893 (bispecific antibody, human IgG1, kappa, lambda, N297G)
light 1: QSVLTQPPSVSAAPGQKVTISCSGSSSNIGNNYVSWYQQLPGTAPKLLIYDNNKRPSGIPDRFSGSKSGTSTTLGITGLQTGDEADYYCGTWDSRLSAVVFGGGTKLTVLGQPKAAPSVTLFPPSSEELQANKATLVCLISDFYPGAVTVAWKADSSPVKAGVETTTPSKQSNNKYAAKSYLSLTPEQWKSHRSYSCQVTHEGSTVEKTVAPTECS
heavy 1: QVQLVESGGGVVQPGRSLRLSCAASGFTFSSFGMHWVRQAPGKGLEWVAVISFDGSIKYSVDSVKGRFTISRDNSKNTLFLQMNSLRAEDTAVYYCARDRLNYYRSFGYYGYHYYGMAVWGQGTTVTVSSASTKGPSVFPLAPSSKSTSGGTAALGCLVKDYFPEPVTVSWNSGALTSGVHTFPAVLQSSGLYSLESVVTVPSSSLGTQTYICNVNHKPSNTKVDKKVEPKSCDKTHTCPPCPAPELLGGPSVFLFPPKPKDTLMISRTPEVTCVVVDVSHEDPEVKFNWYVDGVEVHNAKTKPCEEQYGSTYRCVSVLTVLHQDWLNGKEYKCKVSNKALPAPIEKTISKAKGQPREPQVYTLPPSRKKMTKNQVSLTCLVKGFYPSDIAVEWESNGQPENNYKTTPPVLKSDGSFFLYSKLTVDKSRWQQGNVFSCSVMHEALHNHYTQKSLSLSPGK
light 2: EIVLTQSPATLSLSPGERATLSCRASQSVGRSLHWYQQKPGQAPRLLIKYASQSLSGIPARFSGSGSGTDFTLTISSLEPEDFAVYYCHQSSRLPFTFGPGTKVDIKRTVAAPSVFIFPPSDEQLKSGTASVVCLLNNFYPREAKVQWKVDNALQSGNSQESVTEQDSKDSTYSLESTLTLSKADYEKHKVYACEVTHQGLSSPVTKSFNRGEC
heavy 2: not shown
For the molecule B3, in the experiment with human CGRP receptor, the “Fold-improvement over 4E4 Ab” value turned out to be 0.4 fold and it took 1.35 nM to reach half-maximal inhibition (IC50). In addition, in the experiment with human PAC1 receptor, the “Fold-improvement over 29G4v22 Ab” value came out at 7.4 fold and the “IC50” value came out at 0.87 nM.

B4: iPS:454895 (bispecific antibody, human IgG1, kappa, lambda, N297G)
light 1: QSVLTQPPSVSAAPGQKVTISCSGSSSNIGNNYVSWYQQLPGTAPKLLIYDNNKRPSGIPDRFSGSKSGTSTTLGITGLQTGDEADYYCGTWDSRLSAVVFGGGTKLTVLGQPKAAPSVTLFPPSSEELQANKATLVCLISDFYPGAVTVAWKADSSPVKAGVETTTPSKQSNNKYAAKSYLSLTPEQWKSHRSYSCQVTHEGSTVEKTVAPTECS
heavy 1: QVQLVESGGGVVQPGRSLRLSCAASGFTFSSFGMHWVRQAPGKGLEWVAVISFDGSIKYSVDSVKGRFTISRDNSKNTLFLQMNSLRAEDTAVYYCARDRLNYYRSFGYYGYHYYGMAVWGQGTTVTVSSASTKGPSVFPLAPSSKSTSGGTAALGCLVKDYFPEPVTVSWNSGALTSGVHTFPAVLQSSGLYSLESVVTVPSSSLGTQTYICNVNHKPSNTKVDKKVEPKSCDKTHTCPPCPAPELLGGPSVFLFPPKPKDTLMISRTPEVTCVVVDVSHEDPEVKFNWYVDGVEVHNAKTKPCEEQYGSTYRCVSVLTVLHQDWLNGKEYKCKVSNKALPAPIEKTISKAKGQPREPQVYTLPPSRKKMTKNQVSLTCLVKGFYPSDIAVEWESNGQPENNYKTTPPVLKSDGSFFLYSKLTVDKSRWQQGNVFSCSVMHEALHNHYTQKSLSLSPGK
light 2: EIVLTQSPATLSLSPGERATLSCRASQSVGRSLHWYQQKPGQAPRLLIKYASQSLSGIPARFSGSGSGTDFTLTISSLEPEDFAVYYCHQSSRLPFTFGPGTKVDIKRTVAAPSVFIFPPSDEQLKSGTASVVCLLNNFYPREAKVQWKVDNALQSGNSQESVTEQDSKDSTYSLESTLTLSKADYEKHKVYACEVTHQGLSSPVTKSFNRGEC
heavy 2: not shown
As to B4, in the experiment with human CGRP receptor, the “Fold-improvement over 4E4 Ab” value came to 0.4 fold and the “IC50” value came out at 1.41 nM. Moreover, in the experiment with human PAC1 receptor, the “Fold-improvement over 29G4v22 Ab” value worked out at 9.4 fold and the “IC50” value stood at 0.69 nM.

B5: iPS:454891 (bispecific antibody, human IgG1, kappa, lambda, N297G)
light 1: QSVLTQPPSVSAAPGQKVTISCSGSSSNIGNNYVSWYQQLPGTAPKLLIYDNNKRPSGIPDRFSGSKSGTSTTLGITGLQTGDEADYYCGTWDSRLSAVVFGGGTKLTVLGQPKAAPSVTLFPPSSEELQANKATLVCLISDFYPGAVTVAWKADSSPVKAGVETTTPSKQSNNKYAAKSYLSLTPEQWKSHRSYSCQVTHEGSTVEKTVAPTECS
heavy 1: QVQLVESGGGVVQPGRSLRLSCAASGFTFSSFGMHWVRQAPGKGLEWVAVISFDGSIKYSVDSVKGRFTISRDNSKNTLFLQMNSLRAEDTAVYYCARDRLNYYRSFGYYGYHYYGMAVWGQGTTVTVSSASTKGPSVFPLAPSSKSTSGGTAALGCLVKDYFPEPVTVSWNSGALTSGVHTFPAVLQSSGLYSLESVVTVPSSSLGTQTYICNVNHKPSNTKVDKKVEPKSCDKTHTCPPCPAPELLGGPSVFLFPPKPKDTLMISRTPEVTCVVVDVSHEDPEVKFNWYVDGVEVHNAKTKPCEEQYGSTYRCVSVLTVLHQDWLNGKEYKCKVSNKALPAPIEKTISKAKGQPREPQVYTLPPSRKKMTKNQVSLTCLVKGFYPSDIAVEWESNGQPENNYKTTPPVLKSDGSFFLYSKLTVDKSRWQQGNVFSCSVMHEALHNHYTQKSLSLSPGK
light 2: EIVLTQSPATLSLSPGERATLSCRASQSVGRSLHWYQQKPGQAPRLLIKYASQSLSGIPARFSGSGSGTDFTLTISSLEPEDFAVYYCHQSSRLPFTFGPGTKVDIKRTVAAPSVFIFPPSDEQLKSGTASVVCLLNNFYPREAKVQWKVDNALQSGNSQESVTEQDSKDSTYSLESTLTLSKADYEKHKVYACEVTHQGLSSPVTKSFNRGEC
heavy 2: not shown
B5: in the experiment with human CGRP receptor, the “Fold-improvement over 4E4 Ab” value is 0.6 fold and the “IC50” value was 0.9 nM. Also, in the experiment with human PAC1 receptor, the “Fold-improvement over 29G4v22 Ab” value stood at 9.5 fold and 0.68 nM corresponded to half-maximal inhibition (IC50).
